According to paper PMC8784393 (ACS applied materials & interfaces, 2021):

Key:
SKOV-3 cells = assay: Cell viability after 48 h treatment; assay type: cell-based, human
NCI-H358 cells [1] = assay: Cell viability after 48 h treatment; assay type: cell-based, human
Dynamic light scattering = assay type: physicochemical; conditions: DLS intensity average, scattering angle 90°, room temperature, Nanopure water
α-chymotrypsin = α-chymotrypsin (Bos taurus, UniProt P00766); assay: Proteinase assay, α-chymotrypsin degradation by PAGE; assay type: in vitro ADME; conditions: bands of intact MEL diminished significantly after 15 min
human red blood cells = assay: Hemolysis assay, hemoglobin released from red blood cells; assay type: cell-based; conditions: hemoglobin in supernatant, spectrophotometric
[2] = Innate immune response, cytokine ELISA; assay type: in vivo; conditions: C57BL/6 mice, 3 mg/kg MEL, blood 4 h after injection, n = 5
NCI-H358 xenografts [3] = assay: Tumor growth inhibition in NCI-H358 xenograft; assay type: in vivo, athymic nude mice; conditions: 3 mg/kg MEL-basis i.v. every 3 days, 30 days, n = 4; vehicle 453%
[4] = Plasma pharmacokinetics after tail vein injection; assay type: in vivo; conditions: C57BL/6 mice, i.v. tail vein, Cy5.5-labeled, two-compartment model, n = 5
ζ potential measurement = assay type: physicochemical; conditions: in Nanopure water
NCI-H358 cells [5] = assay: Cellular uptake kinetics by flow cytometry; assay type: cell-based, human; conditions: 1 μM of MEL for 1–4 h
SKOV3 cells = assay: Cellular uptake kinetics by flow cytometry; assay type: cell-based, human; conditions: 1 μM of MEL for 1–4 h
human plasma = assay: Activated partial thromboplastin time; conditions: 20 μM MEL concentration
NCI-H358 xenografts [6] = assay: Biodistribution by fluorescence imaging in NCI-H358 xenograft mice; assay type: in vivo; conditions: i.v. 3 mg/kg MEL, 24 h post-injection, n = 2

Substance	cytotoxicity (cell viability, in words) (SKOV-3 cells)	cytotoxicity (cell viability, in words) (NCI-H358 cells [1])	Dh (hydrodynamic diameter, DLS) (Dynamic light scattering)	α-chymotrypsin digestion (in words) (α-chymotrypsin)	hemolysis at 1 μM (human red blood cells; 1 μM)	interleukin-6 (IL-6) activation [2]	tumor growth by day 30 (% of original size) (NCI-H358 xenografts [3])	elimination half-life (t1/2β) [4]	ζ potential (ζ potential measurement)	hemolysis of RBCs at 60 μM (human red blood cells; 60 μM)	cellular uptake (in words) (NCI-H358 cells [5])	cellular uptake (in words) (SKOV3 cells)	effect on coagulation (clotting) time, aPTT (human plasma)	tumor vs. liver ratio (relative fluorescent intensities) (NCI-H358 xenografts [6])	tumor vs. spleen ratio (relative fluorescent intensities) (NCI-H358 xenografts [6])
pacMELNClv: non-cleavable conjugate of MEL and bottlebrush PEG, negative control	no evident cytotoxicity	no evident cytotoxicity													
YPEG-MEL: conjugate of low PEG density: MEL on Y-shaped PEG, Mn 40 kDa, each arm 20 kDa	reduced but still apparent cytotoxicity	reduced but still apparent cytotoxicity	21.0 ± 0.5 nm	digested rapidly	16%										
melittin				digested rapidly		induces activation	did not lead to statistically meaningful repression of tumor growth	43 min	~ 8 mV	near-complete hemolysis	fast and accelerating process	fast and accelerating process	doubling the coagulation times	0.61	0.55
